Measured values published in the DeepSol protein solubility set.

test: soluble on expression in E. coli; label from the status in PepcDB or PDB records

Sequence	soluble on expression in E. coli
GPGSMAKSSRSKWKKMHRRQRAQAEATNTVKRICLLNKKLKLTVKGGISAVPPQEPEKRFHFLNPVLDSRVPNTRKNLNNNYRAELNHVEYDYTKPLKLAPPKTNMYGKTDVDAPHPMTVMYETIDADTPLAGHALTKADMERLARRQAQQESEASAAVADAEKDASKEDGDNADDGPEEYVFGMEDAAPRRARGQHKTSAKKKGSVAPKALKGAASASVGASSSVSETGSSSRMLAAAAAAMTNEEEEADHRTRNGGVTAVNKIASMQTMRKKNGTMVSAGGASKMKKVGQLGGSSGTRVVSSGGKVARKDVGNAKSGSKR	soluble
MSLRNVLQDYLDEHSFRVVVKKKKNYLTYEGLQDRYAYILKSGIIKTSVISKDGREFNLRYINNLEIVSLLRDEYSEFIDAPFNIRIESPQAELYQIDRVQFWRDINNSKDLQMYVKEYYRDRLMHSMKKMQQMLMNGKFGAVCTQIYEMYDSFGVETEEGILIDFVVTNEEIAHFCGITSASSVNRMMQQLKELGAIELRNRKILIKDLDMIRDNEGGSHHHHHH	soluble
TEQERLELEAAAFRRLVAHLDSRKDVQNIDLMNLSGFCRNCLSKWYKAAADEKHIDITLDDAREVVYGMPYSEWKANYQKEASAEQQAAFVKESKH	not soluble
MSLTWFDLVTPKSVMFFKPFIEELKRRDREVLVTAREGEGYSEVVELLNLYKIPFFNRGGFGGAKLCDKLKASIHRQLELMEFIEQHSIKRLVCLCSVDANRVAFGLGIPIVNFYDIPLSDYKTDFRRALPQARLTLPLSNKAFRPFMVPEEIFFRFGLEHDQIFEYGFLDVVAWLRDFQPSREFYEKVLKDYGLDTSLPTIVVREEEYKASYVMKKYPILYEGLKVLKERLRANILVIPRYEPEAVAELLPFAKVLKEKIVIQHILAYCDLFIGGGGTLNSEACFFGTPTISTRSFVSHYDKFLMDLALMDKVDSIEELIIKAERIIGNRNGYAKQIFDRMEFDVGSMVDEILKEKEGAEGHHHHHH	soluble
GMRNMQEKGVSEKEILEELKKYRSLDLKYEDGNIFGSMCSNVLPITRKIVDIFLETNLGDPGLFKGTKLLEEKAVALLGSLLNNKDAYGHIVSGGTEANLMALRCIKNIWREKRRKGLSKNEHPKIIVPITAHFSFEKGREMMDLEYIYAPIKEDYTIDEKFVKDAVEDYDVDGIIGIAGTTELGTIDNIEELSKIAKENNIYIHVDAAFGGLVIPFLDDKYKKKGVNYKFDFSLGVDSITIDPHKMGHCPIPSGGILFKDIGYKRYLDVDAPYLTETRQATILGTRVGFGGACTYAVLRYLGREGQRKIVNECMENTLYLYKKLKENNFKPVIEPILNIVAIEDEDYKEVCKKLRDRGIYVSVCNCVKALRIVVMPHIKREHIDNFIEILNSIKRD	soluble
MQVLSMIFTREILEEAINYGLTKNTTSFTRIKAGIYKTEREKHRDLPSHYIYTACEDASERLDSFNKLKKRGRSYTDRPSVRRVTVHLDDHLWKFSLNVISIATKRGRVCISPIFPKIFWRYYNDNWLIASGARFKLLKGNVVEFFIVFKKDVKSYDPRGFIPVDLNEDSVSVLINGKPILLETNTRMITLGYEYKRRSITNGRSTKDREVRRKLRERDKKLDVRRKFAKLIVKEAFGSRSAIVLEDLPRGVPEHMVKGVKDKQLRLRIYRSAFSSMKNAIVEKAREFGVPVILVDPSYTSSICPVHGSKIIYQPDGGSAPRVGVCGKGGERWHRDVVALYNLRKRAGDVSPVPLGSKESHDPPVVQVVEGLEHHHHHH	soluble
MSLAAPVHAAPLAATASKFLGCAYGAQQAPGFAQYWNKLTPENGGKWGSVEAVRDQMDWSTLDAAYRFAQANQMPFQMHVMVWGNQQPEWIKTLRPAEQRREIEQWFAAVAQRYPDIALLEVVNEPLNDPPSKADTGGGNYLQALGGNGDSGWEWVLQSFRLARRHFPHTKLMINDYSITSSAQATQKYLQIVRLLQRENLVDAIGVQEHAFETTPEVAVSVHRDNLDALAATGLPIYITEFDLDGPTDAQQLADYKRVFPVFWEHPAVHGITLWGFRPGLWRDKEAAYLIRADGTERPALTWLRDYVAAHPGTEGHHHHHH	soluble
MTLEEARKRVNELRDLIRYHNYRYYVLADPEISDAEYDRLLRELKELEERFPELKSPDSPTLQVGARPLEATFRPVRHPTRMYSLDNAFNLDELKAFEERIERALGRKGPFAYTVEHKVDGLSVNLYYEEGVLVYGATRGDGEVGEEVTQNLLTIPTIPRRLKGVPERLEVRGEVYMPIEAFLRLNEELEERGERIFKNPRNAAAGSLRQKDPRITAKRGLRATFYALGLGLEEVEREGVATQFALLHWLKEKGFPVEHGYARAVGAEGVEAVYQDWLKKRRALPFEADGVVVKLDELALWRELGYTARAPRFAIAYKFPAEEKETRLLDVVFQVGRTGRVTPVGILEPVFLEGSEVSRVTLHNESYIEELDIRIGDWVLVHKAGGVIPEVLRVLKERRTGEERPIRWPETCPECGHRLLKEGKVHRCPNPLCPAKRFEAIRHFASRKAMDIQGLGEKLIERLLEKGLVKDVADLYRLRKEDLVGLERMGEKSAQNLLRQIEESKKRGLERLLYALGLPGVGEVLARNLAARFGNMDRLLEASLEELLEVEEVGELTARAILETLKDPAFRDLVRRLKEAGVEMEAKEKGGEALKGLTFVITGELSRPREEVKALLRRLGAKVTDSVSRKTSYLVVGENPGSKLEKARALGVPTLTEEELYRLLEARTGKKAEELV	soluble
NGFQKEIRGQLLNVAPHAEIGYIDNTDTDWRNLLRFTENRKGILAAAPYVSNQALLANAGEIRGVQMRGILPSEERKVVEYGDKMPAGKFEDLIPGEFDIILGVGLAEALGAEVGNKVTVITPEGNVTPAGVVPRLKQFTVVGLVKTGVYEVDNSLAMTHIQDARVLYRLDKEVAGLRLKLADPQNAPALTATLIPEAQRDAVWVRDWTYSNRSYFEAVELEKR	soluble
QVEVIVMMHGRSTATSMVETVQELLSIESGIALDMPLTVEVKAMYEKLKQTVVKLNPVKGVLILSDMGSLTSFGNILTEELGIRTKTVTMVSTPVVLEAMRKASLGRGLEDIYQSCEQLFENKYKAHVLRAKP	not soluble
MAHHHHHHMNEVVPHVAELMTDQYANFLIQKLFDMMPQDVRYKVARVAAPKIISIALTPHGTFSVQKMVETIASREEMDILREALSKDVVRLVKDAHGNHVIQKVLQRFSHADKEFIYAAVGSDCISIAKNKQGCCVLQRCLEYASCSQRATLVNQILRCCLQIAEDPFGNYVLQYVLESNDSKTTDTIAIAFLPHLVQLCMNKFSSNVIEKVLRGASQPVQEMYVETMCSPDVVSRLIQDDFGNYVLQTALTICSSAQAESLVSAVRPLMPIIRNAPYAKKLEGKIDGIVHKTAGNDRNSFAEYEKSRQGEMNEQNCDILLPHHARESSVAPHQQLSS	not soluble
MIHSLFLINSSGDIFLEKHWKSVVSRSVCDYFFEAQERATEAENVPPVIPTPHHYLLSVYRHKIFFVAVIQTEVPPLFVIEFLHRVVDTFQDYFGVCSEPVIKDNVVVVYEVLEEMLDNGFPLATESNILKELIKPPTILRTVVNTITGSTNVGDQLPTGQLSVVPWRRTGVKYTNNEAYFDVVEEIDAIIDKSGSTVTAEIQGVIDACVKLTGMPDLTLSFMNPRLLDDVSFHPCVRFKRWESERILSFIPPDGNFRLLAYHVSAQNLVAIPVYVKHSISFRDSSSLGRFEITVGPKQTMGKTIEGVIVTSQMPKGVLNMSLTPSQGTHTFDPVTKMLSWDVGKINPQKLPSLKGTMGLQVGASKPDENPTINLQFKIQQLAISGLKVNRLDMYGEKYKPFKGIKYMTKAGKFQVRT	not soluble
GSHMAEPQRHKILCVCCKCDGRIELTVESSAEDLRTLQQLFLSTLSFVCPWCATNQ	soluble
MKVWITGAGGMMGSHLAEMLLAAGHDVYATYCRPTIDPSDLQFNGAEVDITDWCSVYDSIATFRPDAVFHLAAQSYPAVSWARPVETLTTNMVGTAIVFEALRRVRPHAKIIVAGSSAEYGFVDPSEVPINERRELRPLHPYGVSKAATDMLAYQYHKSYGMHTVVARIFNCTGPRKVGDALSDFVRRCTWLEHHPEQSAIRVGNLKTKRTIVDVRDLNRALMLMLDKGEAGADYNVGGSIAYEMGDVLKQVIAACKRDDIVPEVDPALLRPTDEKIIYGDCSKLAAITGWQQEICLTQTIADMFDYWRSKSESALMV	not soluble
